From paper PMC11662940 (Nucleic Acids Research, 2024)

Biological target: T1, ScUba4 (Saccharomyces cerevisiae Uba4) (S. cerevisiae, UniProt P38820 1-440)
T1 sequence: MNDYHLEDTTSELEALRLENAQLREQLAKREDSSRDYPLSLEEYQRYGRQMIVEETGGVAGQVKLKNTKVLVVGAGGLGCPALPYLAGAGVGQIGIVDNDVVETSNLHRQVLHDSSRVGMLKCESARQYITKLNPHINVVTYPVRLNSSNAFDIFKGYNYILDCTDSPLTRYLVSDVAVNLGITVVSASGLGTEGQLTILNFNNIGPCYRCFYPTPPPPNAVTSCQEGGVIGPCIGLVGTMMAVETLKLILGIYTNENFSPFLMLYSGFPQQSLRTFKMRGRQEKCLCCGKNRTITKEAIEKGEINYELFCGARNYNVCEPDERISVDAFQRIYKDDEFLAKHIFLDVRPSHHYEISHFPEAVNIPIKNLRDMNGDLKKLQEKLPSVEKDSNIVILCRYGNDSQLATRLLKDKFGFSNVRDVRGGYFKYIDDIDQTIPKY
Assay: SEC

B1: Thiocarboxylated ScUrm1 (natural protein)
chain: MVNVKVEFLGGLDAIFGKQRVHKIKMDKEDPVTVGDLIDHIVSTMINNPNDVSIFIEDDSIRPGIITLINDTDWELEGEKDYILEDGDIISFTSTLHGG
modifications: thiocarboxylate at the C-terminus
Does B1 bind?
Result: binds
